Paper PMC7736355

Legend:
[1] = molecular target: VP1 protein from GI.1 Norwalk strain (GI.1 WT) (human norovirus GI.1 Norwalk strain); test: SEC; analytical size-exclusion chromatography, Superdex 200 Increase 10/300 GL in PBS, 200 µg VLPs; fractions analysed by SDS–PAGE
[2] = molecular target: VP1 protein from GI.1 Norwalk strain (GI.1 WT) (human norovirus GI.1 Norwalk strain); test: negative staining electron microscopy; VLP samples at ~0.1 mg/mL (0.01–0.05 mg/mL when fragments were present) in 10 mM HEPES pH 7.0, 150 mM NaCl; 0.75% uranyl formate; reference-free 2D class averages

VP1 protein from GI.1 Norwalk strain (GI.1 WT) (natural protein)
fraction of the sample present as VP1 dimers (rest in the void peak as non-dissociated VLPs) [1]: 20% | stoichiometry N [1]: 2 | stoichiometry N [2]: 2
